{
  "source": "patent US20050084876A1",
  "about": "(APOXIS SA FORMERLY APOTECH RESEARCH AND DEVELOPMENT LTD A …, published 2005)",
  "binders": {"B1": {"name": "myc-marked cytoplasmic protein segment of the CD95 (Fas) death receptor (receptor, murine, UniProt P25446 187-327, looked up, not shown: small tags and cut ends)", "chain": "RKYRKRKCWKRRQDDPESRTSSRETIPMNASNLSLSKYIPRIAEDMTIQEAKKFARENNIKEGKIDEIMHDSIQDTAEQKVQLLLCWYQSHGKSDAYQDLIKGLKKAECRRTLDKFQDMVQKDLGKSTPDTGNENEGQCLE", "notes": "range 166-306; also called myc-CD95; my-CD95"}, "B2": {"name": "adaptor protein FADD (human) (other, UniProt Q13158 1-208, looked up)", "chain": "MDPFLVLLHSVSSSLSSSELTELKFLCLGRVGKRKLERVQSGLDLFSMLLEQNDLEPGHTELLRELLASLRRHDLLRRVDDFEAGAAAGAAPGEEDLCAAFNVICDNVGKDWRRLARQLKVSDTKIDSIEDRYPRNLTERVRESLRIWKNTEKENATVAHLVGALRSCQMNLVADLVQEVQQARDLQNRSGAMSPMSWNSDASTSEAS", "notes": "also called CAP1"}, "B3": {"name": "Flag-marked E8 protein (viral FLIP, ORF E8 of equine herpes virus 2, EHV-2) (other, equine herpes virus 2 (EHV-2))", "chain": "DYKDDDDKMSHYSMIDTYFSLDEDETETYLYLCRDLLKNKGEFQCTRDAFKFLSDYACLSAANQMELLFRVGRLDLIRRIFGQTWTPDSCPRYYMPICSPFRCLMALVNDFLSDKEVEEMYFLCAPRLESHLEPGSKKSFLRLASLLEDLELLGGDKLTFLRHLLTTIGRADLVKNLQV", "notes": "mature; also called Flag-E8; E8 FLIP"}},
  "key": {"[1]": {"biological_target": "T1, Flag-marked FLIPP (caspase-homologous C-terminal protein segment of human FLIPL) (human, UniProt O15519 233-480)", "T1 construct": "also called caspase-homologous protein segment of FLIPL", "T1 sequence (O15519 other isoform, or with tags, fused parts or gaps limits assumed)": "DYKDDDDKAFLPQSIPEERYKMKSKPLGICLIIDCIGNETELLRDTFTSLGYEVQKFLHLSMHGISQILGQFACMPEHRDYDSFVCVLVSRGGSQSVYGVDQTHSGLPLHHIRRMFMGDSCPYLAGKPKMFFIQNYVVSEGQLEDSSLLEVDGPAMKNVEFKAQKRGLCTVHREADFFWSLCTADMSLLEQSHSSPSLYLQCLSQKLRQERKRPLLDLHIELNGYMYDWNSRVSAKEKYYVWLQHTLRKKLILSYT", "assay": "anti-Flag immune precipitation, anti-myc Western blot, co-transfected 293T cells (with FADD)"}, "[2]": {"biological_target": "T1, Flag-marked FLIPP (caspase-homologous …)", "assay": "anti-Flag immune precipitation, anti-FADD Western blot, co-transfected 293T cells"}, "[3]": {"biological_target": "T2, Flag-marked 159L protein (viral FLIP, ORF 159L of molluscum contagiosum virus, MCV) (molluscum contagiosum virus (MCV), UniProt Q98325 1-241)", "T2 construct": "also called Flag-159L; 159L-FLIP (MCV)", "T2 sequence": "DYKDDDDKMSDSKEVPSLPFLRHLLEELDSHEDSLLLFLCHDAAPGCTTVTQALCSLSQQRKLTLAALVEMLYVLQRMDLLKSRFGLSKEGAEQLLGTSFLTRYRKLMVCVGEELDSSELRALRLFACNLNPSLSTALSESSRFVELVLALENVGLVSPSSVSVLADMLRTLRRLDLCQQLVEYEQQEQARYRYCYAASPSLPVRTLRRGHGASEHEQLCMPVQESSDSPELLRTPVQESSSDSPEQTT", "assay": "co-transfection in 293T cells, anti-Flag immune precipitation, anti-FADD Western blot"}, "[4]": {"biological_target": "T3, CD95 (APO-1/Fas) death receptor of human Raji B cells, stimulated with agonistic anti-APO-1 antibody (human, UniProt P25445 26-335)", "T3 construct": "whole, on cells; also called CD95 death receptor; CD95 receptor complex", "T3 sequence": "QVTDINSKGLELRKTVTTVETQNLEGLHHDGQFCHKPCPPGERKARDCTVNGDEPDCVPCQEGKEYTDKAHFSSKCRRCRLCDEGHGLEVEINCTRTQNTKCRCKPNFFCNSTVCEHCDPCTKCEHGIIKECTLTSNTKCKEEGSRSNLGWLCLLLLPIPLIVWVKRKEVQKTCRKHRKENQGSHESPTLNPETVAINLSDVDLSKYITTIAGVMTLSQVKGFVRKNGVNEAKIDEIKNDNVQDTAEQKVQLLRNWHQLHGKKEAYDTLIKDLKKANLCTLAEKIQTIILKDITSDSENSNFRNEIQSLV", "assay": "anti-CD95 (APO-1) immune precipitation from Raji clones, gels"}, "[5]": {"biological_target": "B2", "assay": "anti-Flag immune precipitation, anti-FADD Western blot, 293T cells"}},
  "data": [
    {"binder": "B1", "values": [
      {"measurement": "binding result", "setting": "[1]", "value": "no binding"}
    ]},
    {"binder": "B2", "values": [
      {"measurement": "binding result", "setting": "[2]", "value": "no binding"},
      {"measurement": "binding result", "setting": "[3]", "value": "binds"}
    ]},
    {"binder": "B3", "values": [
      {"measurement": "binding result", "setting": "[4]", "value": "binds"},
      {"measurement": "binding result", "setting": "[5]", "value": "binds"}
    ]}
  ]
}
